Reference: patent publication US6562613

Tested on: series of eight synthetic peptides with sequences found in and around the C-proteinase cleavage sites of -Ala-Asp- and -Gly-Asp- in the four pro-alpha chains of types I, II and III procollagen

Substance: C-proteinase (enzyme used on the synthetic peptide substrates; source not stated)
- cleavage of synthetic peptides, HPLC followed by laser desorption mass spectrometry: four of the eight propeptides were specifically and completely cleaved by the enzyme
